Among the data in US8313920B2, “High-throughput assay for evaluating dipeptidyl peptidase I activity” (Janssen Research & Development, LLC, priority 2008, dated 2012) are Km values, retold here.

A word on the Km: it is the substrate concentration at which the rate is half of its maximum.

Substrate in the data set: CC[C@H](C)[C@H](NC(=O)[C@H](CCC(=O)O)NC(=O)CN)C(=O)N[C@H](C(=O)NCC(=O)NCC(=O)N[C@H](C(=O)N[C@@H](CCC(=O)O)C(=O)N[C@@H](CS)C(=O)N[C@@H](CCCCN)C(=O)N1CCC[C@H]1C(=O)N[C@@H](Cc1c[nH]cn1)C(=O)N[C@@H](CO)C(=O)N[C@@H](CCCNC(=N)N)C(=O)N1CCC[C@H]1C(=O)N[C@@H](Cc1ccc(O)cc1)C(=O)N[C@@H](CCSC)C(=O)N[C@@H](C)C(=O)N[C@@H](Cc1ccc(O)cc1)C(=O)N[C@@H](CC(C)C)C(=O)O)[C@@H](C)O)[C@@H](C)CC
Briefly: Initial velocity analysis of DPPI with the 20-mer substrate, mass spectrometry. The settings on record: other: 20-mer as DPPI substrate, about 2 nM DPPI, pH 7.0, about 27° C. In kind it is biochemical, human. The procedure:
FIG. 1. Initial velocity analysis for DPP1 kinetic constant in reaction with a 20-mer substrate (A) and a dipeptide substrate (B). (A) About 2 nM of DPPI was used in the reaction with the 20-mer substrate of […] (SEQ ID NO:1) and the reaction was monitored using a mass spectrometry system. (B) About 0.4 nM of DPP1 was used in the reaction with the dipeptide substrate of GR-α-methylcoumarin and the reaction was monitored using a rate-based format monitoring fluorescence at EM=460 nm and EX=380 nm. Initial rates are taken from kinetic data where less than 7% substrate turnover was achieved.
Once the rate of the substrate turnover under the initial velocity condition, the kinetic constants for DPPI and the peptide substrate are calculated using the following formula (I): Y=VMAX((X+Et+KM)−((((Et+X+KM)^2)−(4XEt))^0.5))/(2Et) wherein • Y is concentration of substrate turnover • X is substrate concentration • Et is DPPI concentration • KM is substrate concentration at ½ VMAX • VMAX is substrate turnover at substrate saturation
About 2 nM of DPPI was incubated with about 0.5, 1, 2, 4, 8, 16, 32, 64, 90, 128, 150 μM of the 20-mer substrate in the reaction buffer of 50 mM HEPES (pH 7.0), 100 mM NaCl, 0.005% Tween-20, and 2 mM of DTT or GSH. […]

B1: dipeptidyl peptidase I (DPPI) (Homo sapiens) (protein)
chain 1: not shown
chain 2: LPTSWDWRNVHGINFVSPVRNQASCGSCYSFASMGMLEARIRILTNNSQTPILSPQEVVSCSQYAQGCEGGFPYLIAGKYAQDFGLVEEACFPYTGTDSPCKMKEDCFRYYSSEYHYVGGFYGGCNEALMKLELVHHGPMAVAFEVYDDFLHYKKGIYHHTGLR
chain 3: not shown
notes: made in house; host or cells: Hi5 insect cells (baculovirus)
As to B1, the Km is 62 µM.
